Measurements as given in paper PMC5147791 (PLoS Neglected Tropical Diseases, 2016).

Assays:
[1] = biological target: SmMTAP S12T/N87T double mutant (Schistosoma mansoni); assay: crystal structure
SmMTAP = biological target: T1, SmMTAP (Schistosoma mansoni, UniProt I0B503); assay: X-ray crystal structure; type: binding
T1 construct: trimer; adult worm cDNA, corrected 3' end versus gene model Smp_028190
T1 sequence (I0B503 1-299): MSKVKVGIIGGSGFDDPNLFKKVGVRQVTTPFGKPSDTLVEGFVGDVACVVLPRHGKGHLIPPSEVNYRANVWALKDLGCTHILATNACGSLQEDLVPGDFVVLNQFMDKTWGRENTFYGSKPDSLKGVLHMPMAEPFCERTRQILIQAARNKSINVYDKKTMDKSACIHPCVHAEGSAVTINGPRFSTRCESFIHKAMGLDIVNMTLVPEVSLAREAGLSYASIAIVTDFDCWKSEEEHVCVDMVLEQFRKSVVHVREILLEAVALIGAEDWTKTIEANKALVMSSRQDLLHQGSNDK

[2] = biological target: SmMTAP N87T mutant (Schistosoma mansoni); assay: crystal structure
[3] = biological target: SmMTAP S12T mutant (Schistosoma mansoni); assay: crystal structure
[4] = biological target: Schistosoma mansoni 5'-deoxy-5'-methylthioadenosine phosphorylase, wild type (Schistosoma mansoni); assay: crystal structure; hanging drop at 18°C, 100 mM Bis-tris or MES pH 6.1-6.7, 14-18% PEG 3350, protein 6 mg/mL; apo or with adenine, MTA, tubercidin, sulphate; one or two trimers in the asymmetric unit
[5] = biological target: SmMTAP Q289L mutant (Schistosoma mansoni); assay: crystal structure
[6] = substrate: Nc1ncnc2c1ncn2[C@H]1C[C@H](O)[C@@H](CO)O1; assay: xanthine oxidase coupled assay, A305; type: biochemical, Schistosoma mansoni; settings: 100 mM potassium phosphate pH 7.4, room temperature
Description: (§1) xanthine oxidase coupled assay, A305 on SmMTAP

[7] = substrate: Nc1ncnc2c1ncn2[C@@H]1O[C@H](CO)[C@@H](O)[C@H]1O; assay: xanthine oxidase coupled assay, A305; type: biochemical, Schistosoma mansoni; settings: 100 mM potassium phosphate pH 7.4, room temperature
Description: as §1

[8] = substrate: CSC[C@H]1O[C@@H](n2cnc3c(N)ncnc32)[C@H](O)[C@@H]1O; assay: xanthine oxidase coupled assay, A305; type: biochemical, Schistosoma mansoni; settings: 100 mM potassium phosphate pH 7.4, room temperature
Description: as §1

purified protein = substrate: O=P(O)(O)O; assay: purified protein; settings: 100 mM Hepes pH 7.4, room temperature, nucleoside co-substrate not stated

SmMTAP S12T/N87T double mutant (enzyme) showed a stoichiometry N [1] of 3.

In the case of `Nc1ncnc2c1ccn2[C@@H]1O[C@H](CO)[C@@H](O)[C@H]1O` [tubercidin], the X-ray crystal structure (SmMTAP; active site, crystals grown with 5 mM ligand) is reported as “In the MTAP tubercidin complex, all of the active sites are occupied”.

For SmMTAP N87T mutant (enzyme), the stoichiometry N [2] was 3.

With SmMTAP S12T mutant (enzyme) the stoichiometry N [3] was 3.

`Nc1ncnc2[nH]cnc12` [adenine] was tested, and the X-ray crystal structure (SmMTAP; base binding site, grown at pH 6.1-6.7, PEG 3350) was “the only WT structure whose BBS are all occupied is the orthorhombic SmMTAP adenine complex”.

“Schistosoma mansoni 5'-deoxy-5'-methylthioadenosine phosphorylase, wild type (enzyme)” showed a stoichiometry N [4] of 3.

Work on SmMTAP Q289L mutant (enzyme) yielded a stoichiometry N [5] of 3.

B1: SmMTAP (Schistosoma mansoni) (protein)
chain: MSKVKVGIIGGSGFDDPNLFKKVGVRQVTTPFGKPSDTLVEGFVGDVACVVLPRHGKGHLIPPSEVNYRANVWALKDLGCTHILATNACGSLQEDLVPGDFVVLNQFMDKTWGRENTFYGSKPDSLKGVLHMPMAEPFCERTRQILIQAARNKSINVYDKKTMDKSACIHPCVHAEGSAVTINGPRFSTRCESFIHKAMGLDIVNMTLVPEVSLAREAGLSYASIAIVTDFDCWKSEEEHVCVDMVLEQFRKSVVHVREILLEAVALIGAEDWTKTIEANKALVMSSRQDLLHQGSNDK
notes: trimer; adult worm cDNA, corrected 3' end versus gene model Smp_028190
B1 gave a Km [6] of 3.97 ± 0.41 µM, a Vmax [6] of 0.0841 µM/min and a kcat [6] of 224 ± 11.3 s⁻¹. It also gave a kcat/Km [6] of 5.65e+07 ± 6.49e+06 M⁻¹ s⁻¹, a Km [7] of 3.14 ± 0.16 µM and a Vmax [7] of 0.0501 µM/min. It also gave a kcat [7] of 334 ± 6.84 s⁻¹, a kcat/Km [7] of 1.06e+08 ± 5.84e+06 M⁻¹ s⁻¹ and a Km [8] of 3.63 ± 0.14 µM. The Vmax [8] was 0.0666 µM/min, the kcat [8] was 444 ± 5.72 s⁻¹ and the kcat/Km [8] was 1.22e+08 ± 4.97e+06 M⁻¹ s⁻¹. For the same molecule, the Km (purified protein) was 65.58 ± 4.69 µM, the Vmax (purified protein) was 0.0358 µM/min and the kcat (purified protein) was 478 s⁻¹. It also gave a kcat/Km (purified protein) of 7.28e+06 M⁻¹ s⁻¹.
